{"source": "patent US20170204445A1", "about": "“IN VIVO SITE-SPECIFIC PROTEIN TAGGING USING ENGINEERED SORTASE VARIANTS” (priority 2016, published 2017)", "target": "Biotin-Lysozyme (hen) (UniProt P00698)", "sequence (P00698 19-147)": "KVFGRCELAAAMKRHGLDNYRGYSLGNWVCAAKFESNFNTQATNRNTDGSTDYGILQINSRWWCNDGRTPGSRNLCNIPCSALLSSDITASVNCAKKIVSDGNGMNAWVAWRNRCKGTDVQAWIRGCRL", "experiment": "flow", "conditions": "scFv", "note": "pKd: −log10 of the molar value."}
{"substance": "scFv D1.3 (from UniProt P32781 19-87)", "values": [{"measurement": "pKd", "result": 9.30}]}
{"substance": "scFv D1.3 (from UniProt P42212 1-238; P32781 19-87)", "values": [{"measurement": "pKd", "result": 9.30}]}
